Test [1] concerns the target T1, β2-Microglobulin (Homo sapiens, UniProt P61769).
T1 construct: human β2-microglobulin; Amine-coupled to a CM5 chip (150 RU); also called antigen β2M; source: expressed and purified as previously described [27]
In words: SPR; Biacore T200; β2M immobilised on a CM5 chip to 150 RU; VHH samples after the modification procedure (NHS-Fluo:VHH 0, 1, 5 or 20; 2 h at 4 °C, ultrafiltration) in 2-fold serial dilution, 30 μL/min, HBS-EP+, 25 °C; 1:1 model with drift and RI2.

The target of test [2] is T1, β2-Microglobulin. Put plainly: SPR; Biacore T200; β2M immobilised on a CM5 chip to 150 RU; VHH samples 'Origin' (no treatment) in 2-fold serial dilution, 30 μL/min, HBS-EP+, 25 °C; 1:1 model with drift and RI2. As to conditions: both partners purified.
Test [3] concerns the target T1, β2-Microglobulin. In words: SPR; Biacore T200; β2M immobilised on a CM5 chip to 150 RU; VHH samples after the modification procedure (NHS-Fluo:VHH 0, 1, 5 or 20; 2 h at 4 °C, ultrafiltration) in 2-fold serial dilution, 30 μL/min, HBS-EP+, 25 °C; 1:1 model with drift and RI2. To be noted: both partners purified.
In test [4] the target is T2, β2-Microglobulin (β2M) (Homo sapiens, UniProt P61769).
T2 construct: β2-microglobulin, human (the title says anti-human β2-microglobulin VHHs); Probably the mature protein without the signal peptide (surmised); also called antigen β2M; human β2-microglobulin; source: expressed and purified as previously described [27]
T2 sequence (P61769 21-119): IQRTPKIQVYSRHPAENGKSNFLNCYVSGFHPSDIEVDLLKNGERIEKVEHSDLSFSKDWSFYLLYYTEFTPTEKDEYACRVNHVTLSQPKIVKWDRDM
In words: SPR; Biacore T200; β2M immobilized on a CM5 chip to 150 RU; 2-fold serial diluted VHH at 30 μL/min in HBS-EP+; 25 °C; 1:1 binding model; VHH samples after incubation with NHS-Fluo at molar ratio 0 (negative control), 1, 5 or 20 and ultrafiltration. As to conditions: both partners purified.

The target of test [5] is T1, β2-Microglobulin. In words: SPR; Biacore T200; β2M immobilised on a CM5 chip to 150 RU; VHH samples 'Origin' (no treatment) in 2-fold serial dilution, 30 μL/min, HBS-EP+, 25 °C; 1:1 model with drift and RI2. As to conditions: both partners purified. This is another data set of the same source.
Test [6] has as its target T1, β2-Microglobulin. In words: SPR; Biacore T200; β2M immobilised on a CM5 chip to 150 RU; VHH samples after the modification procedure (NHS-Fluo:VHH 0, 1, 5 or 20; 2 h at 4 °C, ultrafiltration) in 2-fold serial dilution, 30 μL/min, HBS-EP+, 25 °C; 1:1 model with drift and RI2. As to conditions: both partners purified. This is another data set of the same source.

Ten molecules from article PMC6680903 (Molecules, 2019) can be followed below.

T1 sequence (P61769 21-119): as above

B1: NB-4 modified with 1 time of NHS-Fluo (VHH)
VHH: QVQLVESGGGLVEPGGSVRLSCAVSGNIVSISTVGWYRQAPGKQRELVASITGGGTTNYGDFVNGRFSIYRDNAPNRVYLHMSTLRPDDTAVYYCNARAGGSGSGSDPYDYWGVGTQVTVSS
In test [1], B1 displayed an equilibrium dissociation constant (Kd) of 26200 nM, a koff of 0.00315 s⁻¹ and a kon of 120 M⁻¹ s⁻¹.

B2: NB-4 (VHH)
VHH: QVQLVESGGGLVEPGGSVRLSCAVSGNIVSISTVGWYRQAPGKQRELVASITGGGTTNYGDFVNGRFSIYRDNAPNRVYLHMSTLRPDDTAVYYCNARAGGSGSGSDPYDYWGVGTQVTVSS
notes: VHH domain of NB-4; flexible (G4S)4 linker between the VHH domain and the His6 tag, written out from '(G4S)4'; VHH-(G4S)4-His6; Template of the homology model: PDB 5IMK (GMQE 0.85). 'Origin' = no treatment; '0' = negative control; also called NB-4-Origin; NB-4-0; source: E. coli SHuffle T7, purified (HisTrap HP)
With B2, in test [2], binding was put at a Kd of 289 nM, the koff worked out at 0.0028 s⁻¹ and the kon is 9700 M⁻¹ s⁻¹. In test [3], this molecule registered a Kd of 536 nM, a koff of 0.003 s⁻¹ and an on-rate (kon) of 5600 M⁻¹ s⁻¹.

B3: NB-4 (anti-β2M VHH, unmodified), VHH-(G4S)4-His6 (VHH)
VHH: QVQLVESGGGLVEPGGSVRLSCAVSGNIVSISTVGWYRQAPGKQRELVASITGGGTTNYGDFVNGRFSIYRDNAPNRVYLHMSTLRPDDTAVYYCNARAGGSGSGSDPYDYWGVGTQVTVSS
notes: VHH domain of NB-4; flexible (G4S)4 linker between the VHH domain and the 6xHis-tag, written out from the printed formula; Homology model built on template PDB 5IMK (GMQE 0.85), a template only; also called NB-4-origin; NB-4-0; source: E. coli SHuffle T7, purified (HisTrap HP)
B3: the “fold increase of KD against the sample without any treatment” value in test [4] is about 2 fold.

B4: NB-3 (VHH)
VHH: QVQLVESGGGLVQPGGSLRLSCAASGFSLDYYAIGWFRQAPGKEREGVSCISSSDDSTYYAGSVKGRFKISRDNAKSTVYLQMNSLKPEDSAVYYCAALHSGNYYYTPSYICDAEMDYWGKGTLVTVSS
notes: VHH domain of NB-3; flexible (G4S)4 linker between the VHH domain and the His6 tag, written out from '(G4S)4'; VHH-(G4S)4-His6; Template of the homology model: PDB 5J56 (GMQE 0.93). 'Origin' = no treatment; '0' = negative control; also called NB-3-Origin; NB-3-0; source: E. coli SHuffle T7, purified (HisTrap HP)
In test [5], B4 came in with a Kd of 525 nM, a dissociation rate constant (koff) of 0.00154 s⁻¹ and an on-rate (kon) of 2940 M⁻¹ s⁻¹. In test [6], this molecule came in with an off-rate (koff) of 0.00165 s⁻¹ and an association rate constant (kon) of 1310 M⁻¹ s⁻¹.

B5: NB-3 modified by a 20 fold amount of NHS-Fluo (VHH)
VHH: QVQLVESGGGLVQPGGSLRLSCAASGFSLDYYAIGWFRQAPGKEREGVSCISSSDDSTYYAGSVKGRFKISRDNAKSTVYLQMNSLKPEDSAVYYCAALHSGNYYYTPSYICDAEMDYWGKGTLVTVSS
notes: VHH domain as in m6 (NB-3); flexible (G4S)4 linker between the VHH domain and the 6xHis-tag, written out from the printed formula; Heterogeneous product of random amino modification; also called modified NB-3; NB-3 20:1; source: E. coli SHuffle T7, purified (HisTrap HP), then modified with NHS-Fluo (2 h, 4 °C), ultrafiltration
Turning to B5, the Kd in test [4] came out at 14100 nM.

B6: NB-3 modified with 20 times of NHS-Fluo (VHH)
VHH: QVQLVESGGGLVQPGGSLRLSCAASGFSLDYYAIGWFRQAPGKEREGVSCISSSDDSTYYAGSVKGRFKISRDNAKSTVYLQMNSLKPEDSAVYYCAALHSGNYYYTPSYICDAEMDYWGKGTLVTVSS
notes: as the VHH domain of Dm10; flexible (G4S)4 linker between the VHH domain and the His6 tag, written out from '(G4S)4'; A mixture of isomers with different numbers and places of fluorescein; also called NB-3-20; source: E. coli SHuffle T7, purified (HisTrap HP), modified with NHS-Fluo, ultrafiltration
In test [6], B6 displayed a koff of 0.00402 s⁻¹ and a kon of 286 M⁻¹ s⁻¹.

B7: NB-3 modified with 1 time of NHS-Fluo (VHH)
VHH: QVQLVESGGGLVQPGGSLRLSCAASGFSLDYYAIGWFRQAPGKEREGVSCISSSDDSTYYAGSVKGRFKISRDNAKSTVYLQMNSLKPEDSAVYYCAALHSGNYYYTPSYICDAEMDYWGKGTLVTVSS
notes: as the VHH domain of Dm10; flexible (G4S)4 linker between the VHH domain and the His6 tag, written out from '(G4S)4'; A mixture of isomers with different numbers and places of fluorescein; also called NB-3-1; source: E. coli SHuffle T7, purified (HisTrap HP), modified with NHS-Fluo, ultrafiltration
For B7, in test [6], the dissociation constant (Kd) came to 3490 nM, the off-rate (koff) amounted to 0.00297 s⁻¹ and the kon amounted to 849 M⁻¹ s⁻¹.

B8: NB-3 modified with 5 times of NHS-Fluo (VHH)
VHH: QVQLVESGGGLVQPGGSLRLSCAASGFSLDYYAIGWFRQAPGKEREGVSCISSSDDSTYYAGSVKGRFKISRDNAKSTVYLQMNSLKPEDSAVYYCAALHSGNYYYTPSYICDAEMDYWGKGTLVTVSS
notes: as the VHH domain of Dm10; flexible (G4S)4 linker between the VHH domain and the His6 tag, written out from '(G4S)4'; A mixture of isomers with different numbers and places of fluorescein; also called NB-3-5; source: E. coli SHuffle T7, purified (HisTrap HP), modified with NHS-Fluo, ultrafiltration
As for B8, in test [6], binding was characterised by a dissociation constant (Kd) of 6620 nM, the off-rate constant (koff) is 0.00369 s⁻¹ and the kon was 558 M⁻¹ s⁻¹.

B9: NB-3 (anti-β2M VHH, unmodified), VHH-(G4S)4-His6 (VHH)
VHH: QVQLVESGGGLVQPGGSLRLSCAASGFSLDYYAIGWFRQAPGKEREGVSCISSSDDSTYYAGSVKGRFKISRDNAKSTVYLQMNSLKPEDSAVYYCAALHSGNYYYTPSYICDAEMDYWGKGTLVTVSS
notes: VHH domain of NB-3; flexible (G4S)4 linker between the VHH domain and the 6xHis-tag, written out from the printed formula; Homology model built on template PDB 5J56 (GMQE 0.93), a template only; also called NB-3-origin; NB-3-0; source: E. coli SHuffle T7, purified (HisTrap HP)
With B9, in test [4], the equilibrium dissociation constant (Kd) amounted to 1260 nM and the “fold increase of KD against the sample without any treatment” value is about 2 fold.

B10: NB-1 (VHH)
VHH: QVQLVESGGGLVQAGGSLRLSCAASGSTLDSYYIGWFRQAPGKEREGVSCISSSGNSIRYVDSVKDRFTISRDNGKNTAYLHINSLRPEDTAVYYCAASRRGRKPGLPCSLVRERYAYWGQGTQVTVSS
notes: VHH domain of NB-1; flexible (G4S)4 linker between the VHH domain and the His6 tag, written out from '(G4S)4'; VHH-(G4S)4-His6; Template of the homology model: PDB 4KDT (GMQE 0.99). 'Origin' = no treatment; '0' = negative control, all physical steps of the modification without NHS-Fluo; also called NB-1-Origin; NB-1-0; source: E. coli SHuffle T7, purified (HisTrap HP)
Consider B10, for which, in test [5], the Kd worked out at 61.8 nM, the off-rate constant (koff) was determined as 0.00614 s⁻¹ and the on-rate (kon) is 99300 M⁻¹ s⁻¹. In test [6], this molecule gave a koff of 0.00669 s⁻¹ and an on-rate (kon) of 48500 M⁻¹ s⁻¹.
